From PMC4067516 (Journal of cell science, 2008)

Biological target: β1 integrin (human (endogenous in EA.hy926), UniProt P05556 21-798)
Experiment: co-IP

Sequence of β1 integrin (P05556 21-798): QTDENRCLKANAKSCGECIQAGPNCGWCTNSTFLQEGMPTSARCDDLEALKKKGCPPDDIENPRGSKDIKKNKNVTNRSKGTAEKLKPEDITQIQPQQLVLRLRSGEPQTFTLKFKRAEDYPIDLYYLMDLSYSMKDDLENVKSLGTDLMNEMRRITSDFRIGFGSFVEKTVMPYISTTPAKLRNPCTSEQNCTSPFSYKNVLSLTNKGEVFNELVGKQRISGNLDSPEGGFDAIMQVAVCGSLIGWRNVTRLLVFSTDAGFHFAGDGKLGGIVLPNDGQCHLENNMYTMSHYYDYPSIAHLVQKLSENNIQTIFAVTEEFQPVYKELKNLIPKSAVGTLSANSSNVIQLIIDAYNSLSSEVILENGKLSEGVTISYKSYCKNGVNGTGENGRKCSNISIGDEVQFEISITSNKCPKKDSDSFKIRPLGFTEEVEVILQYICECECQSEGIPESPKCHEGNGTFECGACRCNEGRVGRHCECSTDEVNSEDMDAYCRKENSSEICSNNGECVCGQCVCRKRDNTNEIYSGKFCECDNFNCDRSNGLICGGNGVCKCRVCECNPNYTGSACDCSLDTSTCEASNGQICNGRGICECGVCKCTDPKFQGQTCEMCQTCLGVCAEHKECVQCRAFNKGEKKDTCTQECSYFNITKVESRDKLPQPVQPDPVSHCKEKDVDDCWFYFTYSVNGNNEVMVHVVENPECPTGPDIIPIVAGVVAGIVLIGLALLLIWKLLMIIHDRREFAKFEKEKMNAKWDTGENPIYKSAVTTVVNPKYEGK

B1: cannabinoid 1 receptor (receptor, human (endogenous in EA.hy926), UniProt P21554 1-472, looked up)
chain: MKSILDGLADTTFRTITTDLLYVGSNDIQYEDIKGDMASKLGYFPQKFPLTSFRGSPFQEKMTAGDNPQLVPADQVNITEFYNKSLSSFKENEENIQCGENFMDIECFMVLNPSQQLAIAVLSLTLGTFTVLENLLVLCVILHSRSLRCRPSYHFIGSLAVADLLGSVIFVYSFIDFHVFHRKDSRNVFLFKLGGVTASFTASVGSLFLTAIDRYISIHRPLAYKRIVTRPKAVVAFCLMWTIAIVIAVLPLLGWNCEKLQSVCSDIFPHIDETYLMFWIGVTSVLLLFIVYAYMYILWKAHSHAVRMIQRGTQKSIIIHTSEDGKVQVTRPDQARMDIRLAKTLVLILVVLIICWGPLLAIMVYDVFGKMNKLIKTVFAFCSMLCLLNSTVNPIIYALRSKDLRHAFRSMFPSCEGTAQPLDNSMGDSDCLHKHANNAASVHRAAESCIKSTVKIAKVTMSVSTDTSAEAL
- normalized CB1R ratio without versus with anandamide (2 mM Ca2+): 1.03 ± 0.04
